# Source: US20170052184A1 (published 2017)
# Ends that are not written are not given here.
# T1: WT1STHV biotin labeled HCV core peptide (hepatitis C virus, biotin labeled)
# T1 peptide: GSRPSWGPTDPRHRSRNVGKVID
# T2: Mut1T110N biotin labeled HCV core peptide (hepatitis C virus, biotin labeled)
# T2 peptide: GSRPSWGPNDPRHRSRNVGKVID
# T3: C113WT biotin labeled HCV core peptide (hepatitis C virus, also: biotin labeled, position not given here)
# T3 peptide: RGSRPSWGPTD
# T4: C113T109N biotin labeled HCV core peptide (hepatitis C virus, also: biotin labeled, position not given here)
# T4 peptide: RGSRPSWGPND
# B1: HCV Neo4 monoclonal antibody (antibody, V domains shown)
# VH: QIQLKESGPAVIKPSQSLSLTCIVSGFSITSSVYCWQWIRQPPGKGLEWMGRICYDGSVDYSPSITSRGTISRDTSLNKVFFQLSSVTNEDTAMYYCSRENHIDYYDTTYPSFDVWGAGTTVTVSS
# VL: DIVLTQSPASLIVSLGQRATISCRASKSVNEYGYTYMHWYQQKPGLPPKLLIYLASNLDSGVPARFSGSGSGTDFTLNIHPVEEEDAATYYCQHSRELPYTFGGGTKLEIKR
# Assays:
# [1] = target: T1, WT1STHV biotin labeled HCV core peptide; test: EIA; Ab 125 ng/mL captured on anti-mouse Fc; bt-peptide 500 ng/mL
# [2] = target: T2, Mut1T110N biotin labeled HCV core …; test: as above
# [3] = target: T5, Mut6T110S biotin labeled HCV core peptide (hepatitis C virus); test: as above
# [4] = target: T3, C113WT biotin labeled HCV core peptide; test: as above
# [5] = target: T4, C113T109N biotin labeled HCV core …; test: as above
# [6] = target: T1, WT1STHV biotin labeled HCV core peptide; test: EIA; Ab 1000 ng/mL captured on anti-mouse Fc; bt-peptide 500 ng/mL
# [7] = target: T2, Mut1T110N biotin labeled HCV core …; test: as above
# [8] = target: T5, Mut6T110S biotin labeled HCV core …; test: as above
# [9] = target: T3, C113WT biotin labeled HCV core peptide; test: as above
# [10] = target: T4, C113T109N biotin labeled HCV core …; test: as above
# [11] = target: T1, WT1STHV biotin labeled HCV core peptide; test: EIA; Ab 2000 ng/mL captured on anti-mouse Fc; bt-peptide 500 ng/mL
# [12] = target: T3, C113WT biotin labeled HCV core peptide; test: as above
# [13] = target: T4, C113T109N biotin labeled HCV core …; test: as above
# [14] = target: T1, WT1STHV biotin labeled HCV core peptide; test: EIA; Ab 62.5 ng/mL captured on anti-mouse Fc; bt-peptide 500 ng/mL
# [15] = target: T2, Mut1T110N biotin labeled HCV core …; test: as above
# [16] = target: T5, Mut6T110S biotin labeled HCV core …; test: as above
# [17] = target: T3, C113WT biotin labeled HCV core peptide; test: as above
# [18] = target: T4, C113T109N biotin labeled HCV core …; test: as above
# [19] = target: T1, WT1STHV biotin labeled HCV core peptide; test: EIA; Ab 31.25 ng/mL captured on anti-mouse Fc; bt-peptide 500 ng/mL
# [20] = target: T5, Mut6T110S biotin labeled HCV core …; test: as above
# [21] = target: T3, C113WT biotin labeled HCV core peptide; test: as above
# [22] = target: T4, C113T109N biotin labeled HCV core …; test: as above
# [23] = target: T1, WT1STHV biotin labeled HCV core peptide; test: EIA; Ab 7.813 ng/mL captured on anti-mouse Fc; bt-peptide 500 ng/mL
# [24] = target: T2, Mut1T110N biotin labeled HCV core …; test: as above
# [25] = target: T5, Mut6T110S biotin labeled HCV core …; test: as above
# [26] = target: T3, C113WT biotin labeled HCV core peptide; test: as above
# [27] = target: T4, C113T109N biotin labeled HCV core …; test: as above
binder,measurement,setting,value
B1,signal at 492 nm,[1],1.93 OD 492 nm
same,signal at 492 nm,[2],0.204 OD 492 nm
same,signal at 492 nm,[3],1.27 OD 492 nm
same,signal at 492 nm,[4],0.0599 OD 492 nm
same,signal at 492 nm,[5],0.0858 OD 492 nm
same,signal at 492 nm,[6],2 OD 492 nm
same,signal at 492 nm,[7],0.0678 OD 492 nm
same,signal at 492 nm,[8],1.17 OD 492 nm
same,signal at 492 nm,[9],0.222 OD 492 nm
same,signal at 492 nm,[10],0.0591 OD 492 nm
same,signal at 492 nm,[11],1.9 OD 492 nm
same,signal at 492 nm,[12],0.0766 OD 492 nm
same,signal at 492 nm,[13],0.059 OD 492 nm
same,signal at 492 nm,[14],1.85 OD 492 nm
same,signal at 492 nm,[15],0.139 OD 492 nm
same,signal at 492 nm,[16],1.11 OD 492 nm
same,signal at 492 nm,[17],0.0626 OD 492 nm
same,signal at 492 nm,[18],0.111 OD 492 nm
same,signal at 492 nm,[19],1.67 OD 492 nm
same,signal at 492 nm,[20],0.48 OD 492 nm
same,signal at 492 nm,[21],0.0622 OD 492 nm
same,signal at 492 nm,[22],0.0815 OD 492 nm
same,signal at 492 nm,[23],1.04 OD 492 nm
same,signal at 492 nm,[24],0.0729 OD 492 nm
same,signal at 492 nm,[25],0.132 OD 492 nm
same,signal at 492 nm,[26],0.0731 OD 492 nm
same,signal at 492 nm,[27],0.0751 OD 492 nm
